Laboratory results as given in article PMC6486544 (Nucleic Acids Research, 2019).

What was measured:
[1] = molecular target: GB1-U1A (1-282) (UniProt P09012 1-282); assay: NMR titration
[2] = molecular target: U1A RRM1 (1-126) (UniProt P09012 1-126); assay: NMR titration
U1A RRM1 (1-126), sequence (P09012 1-126): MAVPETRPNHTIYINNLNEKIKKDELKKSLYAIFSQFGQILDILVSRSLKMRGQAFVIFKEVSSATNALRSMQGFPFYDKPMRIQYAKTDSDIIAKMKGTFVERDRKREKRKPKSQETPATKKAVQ

GB1-U1A (1-282), sequence (P09012 whole entry): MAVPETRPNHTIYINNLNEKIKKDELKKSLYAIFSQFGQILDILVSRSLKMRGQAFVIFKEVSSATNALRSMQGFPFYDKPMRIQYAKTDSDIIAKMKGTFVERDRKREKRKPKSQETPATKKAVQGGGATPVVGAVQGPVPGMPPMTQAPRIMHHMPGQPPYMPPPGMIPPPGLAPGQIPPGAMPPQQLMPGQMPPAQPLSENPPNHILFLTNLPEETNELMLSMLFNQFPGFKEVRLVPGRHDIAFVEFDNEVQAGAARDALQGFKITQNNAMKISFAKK

B1: GB1-hSAM68 (C2) (domain or fragment, human, UniProt Q07666 365-443, looked up)
chain: TYEEYGYDDTYAEQSYEGYEGYYSQSQGDSEYYDYGHGEVQDSYEAYGQDDWNGTRPSLKAPPARPVKGAYREHPYGRY
B1: binds [1]; binds [2].
